{"source": "patent US20230346969A1", "about": "“INTERMEDIATE FOR PREPARING ANTIBODY-DRUG CONJUGATE (ADC), PREPARATION METHOD THEREFOR, AND USE THEREOF” (priority 2020, published 2023)", "key": {"[1]": {"target": "Human trophoblast cell surface antigen 2 (Trop-2), on tumor cell lines (human) (UniProt P09758)", "sequence (P09758 27-323)": "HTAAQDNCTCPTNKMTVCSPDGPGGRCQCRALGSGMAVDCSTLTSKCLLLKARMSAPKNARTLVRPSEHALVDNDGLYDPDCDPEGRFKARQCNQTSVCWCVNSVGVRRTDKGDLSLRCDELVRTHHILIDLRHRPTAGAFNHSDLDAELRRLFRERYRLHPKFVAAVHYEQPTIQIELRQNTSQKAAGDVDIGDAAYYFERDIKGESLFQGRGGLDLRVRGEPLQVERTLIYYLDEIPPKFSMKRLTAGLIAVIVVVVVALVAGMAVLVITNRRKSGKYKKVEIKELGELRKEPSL", "experiment": "flow cytometry background, taken as human IgG1 isotype control; cell line printed 'Cepes-3' (probably Capan-1)"}, "[2]": {"target": "Human trophoblast cell surface antigen 2 (Trop-2), on tumor cell lines (human) (UniProt P09758)", "experiment": "flow cytometry background, taken as human IgG1 isotype control; cell line printed 'RMCA' (pancreas; probably BXPC-3)"}, "[3]": {"target": "Human trophoblast cell surface antigen 2 (Trop-2), on tumor cell lines (human) (UniProt P09758)", "experiment": "flow cytometry background, taken as human IgG1 isotype control; cell line printed 'CPAC-1' (probably CFPAC-1)"}, "[4]": {"target": "Human trophoblast cell surface antigen 2 (Trop-2), on tumor cell lines (human) (UniProt P09758)", "experiment": "flow cytometry background, taken as human IgG1 isotype control; cell line printed 'ECLC 214' (probably SCLC-21H)"}, "[5]": {"target": "Human trophoblast cell surface antigen 2 (Trop-2), on tumor cell lines (human) (UniProt P09758)", "experiment": "flow cytometry background, taken as human IgG1 isotype control; cell line printed 'SK-WSS-7' (probably SK-MES-1)"}, "[6]": {"target": "Human trophoblast cell surface antigen 2 (Trop-2), on tumor cell lines (human) (UniProt P09758)", "experiment": "flow cytometry background, taken as human IgG1 isotype control; cell line printed 'COXC28' (probably COLO205)"}, "[7]": {"target": "Human trophoblast cell surface antigen 2 (Trop-2), on tumor cell lines (human) (UniProt P09758)", "experiment": "flow cytometry background, taken as human IgG1 isotype control; cell line printed 'H123' (probably HT29)"}, "[8]": {"target": "Human trophoblast cell surface antigen 2 (Trop-2), on tumor cell lines (human) (UniProt P09758)", "experiment": "flow cytometry background, taken as human IgG1 isotype control; cell line printed 'Cxoo-1' (probably Capan-1)"}, "[9]": {"target": "Human trophoblast cell surface antigen 2 (Trop-2), on tumor cell lines (human) (UniProt P09758)", "experiment": "flow cytometry background, taken as human IgG1 isotype control; cell line printed 'HCl-11685' (probably NCI-H1688, called Trop-2-negative in paragraph 230)"}, "[10]": {"target": "Human trophoblast cell surface antigen 2 (Trop-2), on tumor cell lines (human) (UniProt P09758)", "experiment": "flow cytometry background, taken as human IgG1 isotype control; cell line printed 'NCl-H1828' (probably NCI-H1688, called Trop-2-negative in paragraph 230)"}, "[11]": {"target": "Human trophoblast cell surface antigen 2 (Trop-2), on tumor cell lines (human) (UniProt P09758)", "experiment": "flow cytometry background, taken as human IgG1 isotype control; cell line printed 'SRM-M9-409' (probably MDA-MB-468)"}, "[12]": {"target": "Human trophoblast cell surface antigen 2 (Trop-2), on tumor cell lines (human) (UniProt P09758)", "experiment": "flow cytometry background, taken as human IgG1 isotype control; cell line printed 'HCCHOI' (probably HCC1806)"}, "[13]": {"target": "Human trophoblast cell surface antigen 2 (Trop-2), on tumor cell lines (human) (UniProt P09758)", "experiment": "flow cytometry background, taken as human IgG1 isotype control; cell line printed '3128' (probably HT29)"}, "[14]": {"target": "Human trophoblast cell surface antigen 2 (Trop-2), on tumor cell lines (human) (UniProt P09758)", "experiment": "flow cytometry background, taken as human IgG1 isotype control; cell line printed 'MOA-413-468' (probably MDA-MB-468)"}, "[15]": {"target": "Human trophoblast cell surface antigen 2 (Trop-2), on tumor cell lines (human) (UniProt P09758)", "experiment": "flow cytometry background, taken as human IgG1 isotype control; cell line printed 'SK-M55-1' (probably SK-MES-1)"}, "[16]": {"target": "Human trophoblast cell surface antigen 2 (Trop-2), on tumor cell lines (human) (UniProt P09758)", "experiment": "flow cytometry background, taken as human IgG1 isotype control; cell line printed 'SRM-C-21H' (probably SCLC-21H)"}, "[17]": {"target": "Human trophoblast cell surface antigen 2 (Trop-2), on tumor cell lines (human) (UniProt P09758)", "experiment": "flow cytometry background, taken as human IgG1 isotype control; cell line printed 'SRM-K9-231' (probably MDA-MB-231)"}, "[18]": {"target": "Human trophoblast cell surface antigen 2 (Trop-2), on tumor cell lines (human) (UniProt P09758)", "experiment": "flow cytometry background, taken as human IgG1 isotype control; cell line printed 'HOC1906' (probably HCC1806)"}, "[19]": {"target": "Human trophoblast cell surface antigen 2 (Trop-2), on tumor cell lines (human) (UniProt P09758)", "experiment": "flow cytometry background, taken as human IgG1 isotype control; cell line printed 'SK8RS' (probably SKBR3)"}, "[20]": {"target": "Human trophoblast cell surface antigen 2 (Trop-2), on tumor cell lines (human) (UniProt P09758)", "experiment": "flow cytometry background, taken as human IgG1 isotype control; cell line printed 'HOC2401' (probably NCIH2452)"}, "[21]": {"target": "Human trophoblast cell surface antigen 2 (Trop-2), on tumor cell lines (human) (UniProt P09758)", "experiment": "flow cytometry background, taken as human IgG1 isotype control; cell line printed 'BKFC-Y' (probably BXPC-3)"}, "[22]": {"target": "Human trophoblast cell surface antigen 2 (Trop-2), on tumor cell lines (human) (UniProt P09758)", "experiment": "flow cytometry background, taken as human IgG1 isotype control; cell line printed 'SKERS' (probably SKBR3)"}, "[23]": {"target": "Human trophoblast cell surface antigen 2 (Trop-2), on tumor cell lines (human) (UniProt P09758)", "experiment": "flow cytometry background, taken as human IgG1 isotype control; cell line printed 'CCAO205' (probably COLO205)"}, "[24]": {"target": "Human trophoblast cell surface antigen 2 (Trop-2), on tumor cell lines (human) (UniProt P09758)", "experiment": "flow cytometry background, taken as human IgG1 isotype control; cell line printed 'MCP-83-21' (probably MDA-MB-231)"}, "[25]": {"target": "Human trophoblast cell surface antigen 2 (Trop-2), on tumor cell lines (human) (UniProt P09758)", "experiment": "flow cytometry background, taken as human IgG1 isotype control; cell line CFPAC-1"}, "[26]": {"experiment": "Preparation of control ADC via hydrophobic VC linker (behaviour in solution)", "assay_type": "physicochemical", "details": "hydrophobic VC linker with PTX payload", "protocol": "A Troptargeted hRS7-VC-PTX molecule was prepared via a hydrophobic VC linker (FIG. 1a)."}, "[27]": {"target": "Human trophoblast cell surface antigen 2 (Trop-2), on tumor cell lines (human) (UniProt P09758)", "experiment": "flow cytometry, 5 ug/mL hRS7 + PE anti-human IgG; cell line CFPAC-1 (pancreas)"}, "[28]": {"target": "Human trophoblast cell surface antigen 2 (Trop-2), on tumor cell lines (human) (UniProt P09758)", "experiment": "flow cytometry, 5 ug/mL hRS7 + PE anti-human IgG; cell line printed 'CPAC-1' (pancreas; probably CFPAC-1)"}}}
{"substance": "human IgG1 isotype control (antibody)", "values": [{"measurement": "MFI (background)", "setting": "[1]", "result": 3580, "unit": "MFI"}, {"measurement": "MFI (background)", "setting": "[2]", "result": 1080, "unit": "MFI"}, {"measurement": "MFI (background)", "setting": "[3]", "result": 1580, "unit": "MFI"}, {"measurement": "MFI (background)", "setting": "[4]", "result": 1230, "unit": "MFI"}, {"measurement": "MFI (background)", "setting": "[5]", "result": 691, "unit": "MFI"}, {"measurement": "MFI (background)", "setting": "[6]", "result": 811, "unit": "MFI"}, {"measurement": "MFI (background)", "setting": "[7]", "result": 894, "unit": "MFI"}, {"measurement": "MFI (background)", "setting": "[8]", "result": 3650, "unit": "MFI"}, {"measurement": "MFI (background)", "setting": "[9]", "result": 868, "unit": "MFI"}, {"measurement": "MFI (background)", "setting": "[10]", "result": 480, "unit": "MFI"}, {"measurement": "MFI (background)", "setting": "[11]", "result": 378, "unit": "MFI"}, {"measurement": "MFI (background)", "setting": "[12]", "result": 692, "unit": "MFI"}, {"measurement": "MFI (background)", "setting": "[13]", "result": 866, "unit": "MFI"}, {"measurement": "MFI (background)", "setting": "[14]", "result": 678, "unit": "MFI"}, {"measurement": "MFI (background)", "setting": "[15]", "result": 801, "unit": "MFI"}, {"measurement": "MFI (background)", "setting": "[16]", "result": 1220, "unit": "MFI"}, {"measurement": "MFI (background)", "setting": "[17]", "result": 1250, "unit": "MFI"}, {"measurement": "MFI (background)", "setting": "[18]", "result": 192, "unit": "MFI"}, {"measurement": "MFI (background)", "setting": "[19]", "result": 1830, "unit": "MFI"}, {"measurement": "MFI (background)", "setting": "[20]", "result": 1580, "unit": "MFI"}, {"measurement": "MFI (background)", "setting": "[21]", "result": 1670, "unit": "MFI"}, {"measurement": "MFI (background)", "setting": "[22]", "result": 1850, "unit": "MFI"}, {"measurement": "MFI (background)", "setting": "[23]", "result": 1530, "unit": "MFI"}, {"measurement": "MFI (background)", "setting": "[24]", "result": 1250, "unit": "MFI"}, {"measurement": "MFI (background)", "setting": "[25]", "result": 1580, "unit": "MFI"}]}
{"substance": "hRS7-VC-PTX", "values": [{"measurement": "behaviour in solution during the preparation process", "setting": "[26]", "result": "completely precipitated out of solution"}]}
{"substance": "Humanized Trop-2 antibody hRS7", "values": [{"measurement": "MFI", "setting": "[27]", "result": 35400, "unit": "MFI"}, {"measurement": "MFI", "setting": "[28]", "result": 3840, "unit": "MFI"}]}
